Literature values, collected in US20060275806.
Like-named read-outs stand apart in the source and are kept apart here.

Experiments:
[1] = tested on: MDBP2 (methylated DNA binding protein 2); conditions: method not given
MLL MT domain = conditions: method not given

In the case of DNA with single fully methylated CpG, the Kd ([1]; 5mC at CpG, both strands, error 0.08 nM) is given as 2.7 nM.
In the case of non-specific DNA, the Kd ([1]; error 46.8 nM) is given as 189 nM.
In the case of unmethylated CpG DNA, the Kd (MLL MT domain) is given as 33 nM.
